{"source": "patent US7067619", "about": "(LA JOLLA CANCER RESEARCH FOUNDATION, dated 2006)", "data": [{"molecular_target": "T1, αvβ3 integrin isolated from human placental extract (human, UniProt P06756 31-1048; P05106 27-788)", "T1 construct": "isolated on GRGDSPK-Sepharose; said to be primarily αvβ3", "T1 sequence (P06756 31-1048, chain 1 of 2)": "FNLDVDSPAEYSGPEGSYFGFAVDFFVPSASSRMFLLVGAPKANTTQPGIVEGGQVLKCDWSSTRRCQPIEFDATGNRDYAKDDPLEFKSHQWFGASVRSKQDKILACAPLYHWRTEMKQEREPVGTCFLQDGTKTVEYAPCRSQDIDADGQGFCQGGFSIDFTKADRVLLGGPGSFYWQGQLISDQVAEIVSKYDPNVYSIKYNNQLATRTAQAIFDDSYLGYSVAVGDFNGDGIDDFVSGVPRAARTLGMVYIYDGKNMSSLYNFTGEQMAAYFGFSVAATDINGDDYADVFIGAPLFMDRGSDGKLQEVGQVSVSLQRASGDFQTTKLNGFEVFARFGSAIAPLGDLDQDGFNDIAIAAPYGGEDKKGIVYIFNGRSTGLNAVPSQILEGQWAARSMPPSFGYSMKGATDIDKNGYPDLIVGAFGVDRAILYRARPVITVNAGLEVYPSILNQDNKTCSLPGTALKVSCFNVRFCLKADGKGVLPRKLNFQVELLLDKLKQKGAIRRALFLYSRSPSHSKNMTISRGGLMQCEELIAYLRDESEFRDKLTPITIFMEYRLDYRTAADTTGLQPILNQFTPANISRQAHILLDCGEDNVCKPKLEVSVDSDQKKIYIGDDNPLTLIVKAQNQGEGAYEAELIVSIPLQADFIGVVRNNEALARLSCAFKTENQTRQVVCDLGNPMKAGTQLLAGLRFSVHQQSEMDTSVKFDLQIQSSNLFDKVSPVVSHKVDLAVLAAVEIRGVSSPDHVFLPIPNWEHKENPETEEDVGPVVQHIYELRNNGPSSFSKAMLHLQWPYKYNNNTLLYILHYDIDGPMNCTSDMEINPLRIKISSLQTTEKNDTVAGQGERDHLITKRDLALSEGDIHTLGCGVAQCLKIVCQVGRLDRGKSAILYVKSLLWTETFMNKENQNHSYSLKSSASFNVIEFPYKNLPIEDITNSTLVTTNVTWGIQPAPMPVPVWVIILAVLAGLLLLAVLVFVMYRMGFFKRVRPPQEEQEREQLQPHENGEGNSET", "T1 sequence (P05106 27-788, chain 2 of 2)": "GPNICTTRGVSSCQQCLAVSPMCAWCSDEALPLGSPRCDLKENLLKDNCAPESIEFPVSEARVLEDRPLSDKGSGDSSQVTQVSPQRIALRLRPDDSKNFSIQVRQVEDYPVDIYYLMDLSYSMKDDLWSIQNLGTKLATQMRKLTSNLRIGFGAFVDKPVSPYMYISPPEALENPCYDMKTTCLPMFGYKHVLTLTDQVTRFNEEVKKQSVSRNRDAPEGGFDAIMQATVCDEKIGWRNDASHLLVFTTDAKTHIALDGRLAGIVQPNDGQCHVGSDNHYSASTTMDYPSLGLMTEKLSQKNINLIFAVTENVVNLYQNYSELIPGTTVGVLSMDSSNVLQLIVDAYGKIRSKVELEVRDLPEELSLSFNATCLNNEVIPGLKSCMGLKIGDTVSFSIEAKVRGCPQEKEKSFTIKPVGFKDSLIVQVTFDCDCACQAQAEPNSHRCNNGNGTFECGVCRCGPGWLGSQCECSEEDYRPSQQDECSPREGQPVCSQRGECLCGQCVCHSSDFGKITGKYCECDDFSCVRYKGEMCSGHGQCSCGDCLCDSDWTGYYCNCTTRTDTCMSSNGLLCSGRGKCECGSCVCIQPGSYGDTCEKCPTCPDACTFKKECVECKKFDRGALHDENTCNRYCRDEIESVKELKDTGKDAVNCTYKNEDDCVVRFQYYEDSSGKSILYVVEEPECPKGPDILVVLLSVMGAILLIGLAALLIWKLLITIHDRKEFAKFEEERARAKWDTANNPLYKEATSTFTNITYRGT", "test": "phage panning on coated integrin", "experimental": "In the first panning, the integrins were coated at 5 µg per well, and the library pool was incubated for 4 hours at 25° C. in TBS buffer containing 1% bovine serum albumin and 1 mM MnCl_2 (α_5β_1, α_vβ_3) 1 mM MgCl_2 ($\\alphaIIb\\beta_3$) or 1 mM CaCl_2 (α_vβ_5).", "values": [{"binder": "CVRRGDAFC (on fuse 5 phage, fused to pIII)", "note": "[CVRRGDAFC phage]", "binding result": "binds"}, {"binder": "CLSRGDVVC (on fuse 5 phage, fused to pIII)", "note": "[CLSRGDVVC phage]", "binding result": "binds"}, {"binder": "CSPRGDAGC (on fuse 5 phage, fused to pIII)", "note": "[CSPRGDAGC phage]", "binding result": "binds"}, {"binder": "CLRGDIANC (on fuse 5 phage, fused to pIII)", "note": "[CLRGDIANC phage]", "binding result": "binds"}, {"binder": "CTRGDSIFC (on fuse 5 phage, fused to pIII)", "note": "[CTRGDSIFC phage]", "binding result": "binds"}, {"binder": "CPRGDSTLC (on fuse 5 phage, fused to pIII)", "note": "[CPRGDSTLC phage]", "binding result": "binds"}, {"binder": "CRGDSLRC (on fuse 5 phage, fused to pIII)", "note": "[CRGDSLRC phage]", "binding result": "binds"}, {"binder": "CAGRGDALC (on fuse 5 phage, fused to pIII)", "note": "[CAGRGDALC phage]", "binding result": "binds"}, {"binder": "CLRRGDSGC (on fuse 5 phage, fused to pIII)", "note": "[CLRRGDSGC phage]", "binding result": "binds"}, {"binder": "CSRGDGRC (on fuse 5 phage, fused to pIII)", "note": "[CSRGDGRC phage]", "binding result": "binds"}, {"binder": "CRGDGRNC (on fuse 5 phage, fused to pIII)", "note": "[CRGDGRNC phage]", "binding result": "binds"}, {"binder": "CLRGDRVC (on fuse 5 phage, fused to pIII)", "note": "[CLRGDRVC phage]", "binding result": "binds"}, {"binder": "CGRGDLIHC (on fuse 5 phage, fused to pIII)", "note": "[CGRGDLIHC phage]", "binding result": "binds"}, {"binder": "CTRRGDATC (on fuse 5 phage, fused to pIII)", "note": "[CTRRGDATC phage]", "binding result": "binds"}, {"binder": "CWRGDRAC (on fuse 5 phage, fused to pIII)", "note": "[CWRGDRAC phage]", "binding result": "binds"}, {"binder": "CNARGDGFC (on fuse 5 phage, fused to pIII)", "note": "[CNARGDGFC phage]", "binding result": "binds"}, {"binder": "CGRGDSHHC (on fuse 5 phage, fused to pIII)", "note": "[CGRGDSHHC phage]", "binding result": "binds"}, {"binder": "CVTRGDHFC (on fuse 5 phage, fused to pIII)", "note": "[CVTRGDHFC phage]", "binding result": "binds"}, {"binder": "CTTRGDSFC (on fuse 5 phage, fused to pIII)", "note": "[CTTRGDSFC phage]", "binding result": "binds"}, {"binder": "CTTRSDSFC (on fuse 5 phage, fused to pIII)", "note": "[CTTRSDSFC phage]", "binding result": "binds"}, {"binder": "CNIRGDKIC (on fuse 5 phage, fused to pIII)", "note": "[CNIRGDKIC phage]", "binding result": "binds"}, {"binder": "CRVRGDSWC (on fuse 5 phage, fused to pIII)", "note": "[CRVRGDSWC phage]", "binding result": "binds"}, {"binder": "CSRGDTYLC (on fuse 5 phage, fused to pIII)", "note": "[CSRGDTYLC phage]", "binding result": "binds"}, {"binder": "CEVRGDRIC (on fuse 5 phage, fused to pIII)", "note": "[CEVRGDRIC phage]", "binding result": "binds"}, {"binder": "CTRGDSLDC (on fuse 5 phage, fused to pIII)", "note": "[CTRGDSLDC phage]", "binding result": "binds"}, {"binder": "CNARGDKLC (on fuse 5 phage, fused to pIII)", "note": "[CNARGDKLC phage]", "binding result": "binds"}, {"binder": "CWRGDTPC (on fuse 5 phage, fused to pIII)", "note": "[CWRGDTPC phage]", "binding result": "binds"}, {"binder": "CPSRGDALC (on fuse 5 phage, fused to pIII)", "note": "[CPSRGDALC phage]", "binding result": "binds"}, {"binder": "CDRGDSQSC (on fuse 5 phage, fused to pIII)", "note": "[CDRGDSQSC phage]", "binding result": "binds"}, {"binder": "CISRGDTFC (on fuse 5 phage, fused to pIII)", "note": "[CISRGDTFC phage (αvβ3 selection)]", "binding result": "binds"}]}]}
